Data published in patent US6444644B1, “Anticoagulant peptide fragments derived from apolipoprotein B-100” (University College London, priority 1996, dated 2002).

Columns and labels:
thromboplastin [1] = biological target: T1, thromboplastin (Homo sapiens, UniProt P13726); test: Effect of thromboplastin peptide (58-66) on thromboplastin activity (one-stage prothrombin time assay); type: biochemical; conditions: for effect on the procoagulant activity of thromboplastin (in words) / Procoagulant Activity of thromboplastin: peptide 1 μM, thromboplastin 100 nM; for Procoagulant Activity of thromboplastin: 5 min, 37° C., distilled water 6.70 U/ml
T1 construct: purchased Gamidor Ltd. (Oxfordshire, U.K.)
T1 sequence (P13726 33-295): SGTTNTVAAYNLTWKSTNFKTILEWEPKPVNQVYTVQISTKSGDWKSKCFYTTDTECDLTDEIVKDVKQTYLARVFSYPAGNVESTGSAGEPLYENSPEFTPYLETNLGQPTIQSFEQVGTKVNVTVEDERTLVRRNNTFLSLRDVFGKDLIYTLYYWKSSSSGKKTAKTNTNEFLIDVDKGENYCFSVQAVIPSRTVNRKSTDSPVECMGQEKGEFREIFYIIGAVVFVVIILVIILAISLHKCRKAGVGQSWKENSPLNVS
Procedure: The control peptide ([…]) was reconstituted to 1 mM in distilled water. The control peptide was similar but not identical to the thromboplastin (58-66), in size, charge and amino acid composition but with a different sequence. In order to assess the effect of the thromboplastin peptide (58-66) on the activity of thromboplastin, samples of recombinant thromboplastin (100 nM) were incubated for 5 min, with the isolated thromboplastin-peptide ([…]), control peptide (1 μM) or distilled water at 37° C. prior to assaying using the one-stage prothrombin time assay. The activity was calculated from a thromboplastin standard curve.
Three aliquots of thromboplastin (100 nM) were incubated for 5 min, with the isolated thromboplastin peptide (1 μM), control peptide (1 μM) or distilled water at 37° C. prior to assaying using the one-stage prothrombin time assay. The activity was calculated from a thromboplastin standard curve. The data were obtained from 3 separate experiments.

[2] = system: T2, KRAD-14 peptide (recombinant, released from the biotinylated fusion protein with chymotrypsin)
T2 sequence: KAQSKKNKHRHSTT

[3] = biological target: T3, interaction of thromboplastin with apo B-100 (Homo sapiens, UniProt P13726); test: Influence of peptide 58-66 on the inhibition of thromboplastin by apo B-100; type: biochemical; conditions: peptide 1 μM, thromboplastin 100 nM, apo B-100 250 nM, 37° C., up to 180 min
T3 construct: purchased Gamidor Ltd. (Oxfordshire, U.K.) for thromboplastin; apoB-100 isolated and reconstituted in house
T3 sequence (P13726 33-295): as above
Procedure: (250 nM final concentration) in the presence and absence of the isolated thromboplastin peptide (1 μM) or control peptide (1 μM), at 37° C. Aliquots (100 μl) were removed at the start and at various intervals up to 180 min and assayed by means of the one-stage prothrombin time assay. The residual activity of thromboplastin measured in the samples was compared to the initial activity, at time zero, and percentage inhibition calculated.
Samples of thromboplastin (100 nM) were incubated with reconstituted apo B-100 (250 nM final concentration) in the presence (▪) and absence (▾) of the isolated thromboplastin peptide (1 μM), at 37° C. Aliquots ([…]) were removed at the start (time zero) and at various intervals up to 180 min and assayed by means of the one-stage prothrombin time assay. The data presented are representative of 5 independent experiments.

[4] = biological target: recombinant thromboplastin (UniProt P13726 33-295, limits assumed); test: cell-based or functional assay
[5] = biological target: T4, thromboplastin, reconstituted in phosphatidylcholine (Homo sapiens, UniProt P13726); test: Inhibition of delipidated thromboplastin reconstituted in phosphatidylcholine; type: biochemical; conditions: 500 nM sample, 37° C., 30 min; for Procoagulant Activity: distilled water control 4.70 U/ml
T4 construct: purchased Gamidor Ltd. (Oxfordshire, U.K.)
T4 sequence (P13726 33-295): as above
Procedure: In other experiments, recombinant thromboplastin (1 mg/ml) was delipidated with chloroform/methanol as described previously, to remove phosphatidylserine and other lipids and reconstituted with phosphatidylcholine (1 mg/ml) to differentiate between the effects of the prepared samples on the protein moiety of thromboplastin and any effects on the thromboplastin-associated phosphatidylserine. […] The percentage inhibition was calculated against the control sample.
Recombinant thromboplastin was delipidated to remove phosphatidylserine and other lipids and reconstituted at 1 mg/ml with phosphatidylcholine (1 mg/ml). […] The % Inhibition was calculated against the control. The data were obtained from 3 separate experiments.

thromboplastin [6] = biological target: T1, thromboplastin; test: Time-course inhibition of thromboplastin procoagulant activity (one-stage prothrombin time and two-stage amidolytic assay); type: biochemical; conditions: 500 nM, 37° C.; for effect on thromboplastin (in words): up to 120 min
Procedure: The one stage prothrombin time assay was carried out by the addition of 100 μl of the sample to 100 μl of 25 mM CaCl2 solution and incubation prior to addition of 100 μl of control plasma. The clotting time was measured on the coagulometer. The two-stage amidolytic assay was carried according to published procedures. In all cases the thromboplastin activity was calculated from a standard curve prepared previously and the percentage inhibition was calculated as 100×[…].
The apolipoprotein B-100 control peptide (fragment 3358-3372) containing the sequence TRLTRKRGLKLATAL was reconstituted in distilled water to 1 mM. The freeze-dried samples were reconstituted in distilled water to a concentration of 1 mM. Two 200 μl samples of thromboplastin (10 U/ml) were incubated with 500 nM KRAD-14 or apolipoprotein B-100 control peptide at 37° C. for 45 min. Another set of 200 μl samples of thromboplastin (10 U/ml) were incubated with either 500 nM KRAD-98 or the chloramphenicol acetyltransferase control protein. […] Following the incubation the thromboplastin activity in all the samples was measured by means of the one-stage prothrombin time assay and the two-stage amidolytic assay and the percentage inhibition calculated against the control containing distilled water.
The above experiments were repeated using 1 ml samples containing recombinant thromboplastin (10 U/ml) mixed with either 500 nM KRAD-14, 500 nM KRAD-98 or 500 nM apolipoprotein B-100, reconstituted as described before. The concentrations used are equivalent to that of apolipoprotein B-100 in normal plasma. 100 μl of the each sample was removed immediately and assayed for thromboplastin activity, by means of the one-stage prothrombin time assay. The rest of the samples were incubated at 37° C. and further 100 μl samples were removed at intervals up to 120 min and measured as before. The percentage inhibition was calculated against a control sample of thromboplastin.
Three 1 ml samples containing recombinant thromboplastin (10 U/ml) were mixed with 500 nM KRAD-14 (solid square), 500 nM KRAD-98 (open square) or 500 nM apolipoprotein […] (triangle), reconstituted as described before. The concentrations used are equivalent to that of apolipoprotein B-100 in normal plasma. 100 μl of the each sample was removed immediately and assayed for thromboplastin activity, by means of the one-stage prothrombin time assay. The rest of the samples were incubated at 37° C. and further 100 μl samples were removed at intervals up to 120 min and measured as before. The thromboplastin activity was calculated from a standard curve prepared previously and the percentage inhibition was calculated as 100×[…]. The curves are typical of data from four sets of experiments.

thromboplastin [7] = biological target: T1, thromboplastin; test: Inhibition of thromboplastin in the presence of plasma; type: biochemical
Procedure: […] The samples were then assayed by addition of 100 μl of […] CaCl2 solution and measurement on the coagulometer. The percentage inhibition in each case calculated against a similarly treated sample, containing thromboplastin only.

VQGEESDNK [Control peptide]
effect on the procoagulant activity of thromboplastin (in words) (thromboplastin [1]): did not have any significant effect
Procoagulant Activity of thromboplastin (thromboplastin [1]): Control peptide (6.75 U/ml)

thrombin
clotting ability and amidolytic proteolytic activity of thrombin (100 nM) after incubation with 500 nM peptide [2]: The KRAD-14 peptide (500 nM) did not affect either the clotting ability or the amidolytic proteolytic activity of thrombin (100 nM)

DLTDEIVKD [thromboplastin-derived peptide (58-66), recombinant peptide of thromboplastin residues 58-66]
effect on the rate of inhibition of thromboplastin activity by reconstituted apo B-100 [3]: accelerated the rate of inhibition of thromboplastin activity
effect on the procoagulant activity of thromboplastin (in words) (thromboplastin [1]): enhanced the procoagulant activity of thromboplastin
endogenous procoagulant activity of the peptide (thromboplastin [1]; peptide alone): no endogenous procoagulant activity
Procoagulant Activity of thromboplastin (thromboplastin [1]): Peptide 56-66 (7.45 U/ml)

reconstituted apolipoprotein B-100 (from UniProt P04114 28-4563)
% Inhibition of thromboplastin delipidated and reconstituted in phosphatidylcholine; 500 nM, 30 min, 37 C [4]: 62%
Procoagulant Activity left of thromboplastin reconstituted in phosphatidylcholine; 500 nM, 30 min, 37 C [4]: 1.79 U/ml
inhibition of procoagulant activity of thromboplastin, time course (FIG. 1), 70 min [4]: > 90%

TRLTRKRGLKLATAL [APO B-100 control peptide (3358-3372), apolipoprotein B-100 control peptide purchased from Sigma, reference compound]
Procoagulant Activity [5]: (3358-3372) (4.68 U/ml)
effect on thromboplastin (in words) (thromboplastin [6]; listed as cationic peptide from apolipoprotein B-100 (fragment 3358-3372)): had no effect
effect on thromboplastin (in words) (thromboplastin [6]; listed as control 15 mer apolipoprotein B-100 (fragment 3358-3372) peptide): neither the control 15 mer apolipoprotein B-100 (fragment 3358-3372) peptide nor the chloramphenicol acetyltransferase control protein had any detectable effect

Reconstituted apolipoprotein B-100: apolipoprotein B-100 isolated from LDL by delipidation and gel filtration, reconstituted in phosphatidylcholine
% Inhibition ([5]; against distilled water control): 62%
Procoagulant Activity [5]: (1.79 U/ml)
inhibition of the procoagulant activity of thromboplastin (thromboplastin [6]; 90 min incubation): > 95%

TRLTRKRGLKLATAL [apolipoprotein B-100 control peptide (fragment 3358-3372)]
% Inhibition of thromboplastin delipidated and reconstituted in phosphatidylcholine; 500 nM, 30 min, 37 C [4]: 0.4%
Procoagulant Activity left of thromboplastin reconstituted in phosphatidylcholine; 500 nM, 30 min, 37 C [4]: 4.68 U/ml

KAQSKKNKHRHSTT [KRAD-14 peptide (recombinant, released from the biotinylated fusion protein with chymotrypsin)]
% Inhibition of thromboplastin delipidated and reconstituted in phosphatidylcholine; 500 nM, 30 min, 37 C [4]: 99%
Procoagulant Activity left of thromboplastin reconstituted in phosphatidylcholine; 500 nM, 30 min, 37 C [4]: 0.05 U/ml

B1: KRAD-98 peptide (recombinant, released with enterokinase) (peptide)
peptide: LKDESLWEKTGLKEFLKTTKQSFDLSVKAQYKKNKHRHSITNPLAVLCEFISQSIKSFDRHFEKNRNNALDFVTKSYNETKIKFDKYKAEKSHDELPR
Procoagulant Activity [5]: (0.71 U/ml)
influence of plasma on the ability to inhibit thromboplastin activity (in words) (thromboplastin [7]; plasma included during the incubation prior to assaying, peptide 500 nM): did not significantly affect
inhibition of thromboplastin activity in the presence of plasma (thromboplastin [7]; plasma present, 37° C., 40 min incubation): 95%
% Inhibition of thromboplastin delipidated and reconstituted in phosphatidylcholine; 500 nM, 30 min, 37 C [4]: 85%
Procoagulant Activity left of thromboplastin reconstituted in phosphatidylcholine; 500 nM, 30 min, 37 C [4]: 0.71 U/ml
inhibition of the procoagulant activity of thromboplastin (thromboplastin [6]; 45 min incubation): 95%
